Test system: en-10C-R4 (engrailed homeodomain-ligase 10C-tetra-arginine) (artificial fusion)
Assay: fluorescence anisotropy
Conditions: 20 mM HEPES pH 7.5, 150 mM NaCl, 100 uM 2-mercaptoethanol, 120 uM ZnCl2, 100 ug/ml BSA, 24 C, 90 min

For “GUUCAGAGUUCUACAGUCACUAACGUUCGGGGAACCCAGGUGUUGGUCUUUGACGUAGAGUAUAAGA / TGGGTTCCCCGAACGT [RNA/DNA duplex (ligated product RNA + FAM-DNA splint #2)]”, the Kd was 0.46 µM.
